T1: SHR-SCR complex (SHR 59-531 with SCR 275-653) (Arabidopsis thaliana, UniProt Q9SZF7 59-531; Q9M384 275-653)
T1 sequence (looked up) 1: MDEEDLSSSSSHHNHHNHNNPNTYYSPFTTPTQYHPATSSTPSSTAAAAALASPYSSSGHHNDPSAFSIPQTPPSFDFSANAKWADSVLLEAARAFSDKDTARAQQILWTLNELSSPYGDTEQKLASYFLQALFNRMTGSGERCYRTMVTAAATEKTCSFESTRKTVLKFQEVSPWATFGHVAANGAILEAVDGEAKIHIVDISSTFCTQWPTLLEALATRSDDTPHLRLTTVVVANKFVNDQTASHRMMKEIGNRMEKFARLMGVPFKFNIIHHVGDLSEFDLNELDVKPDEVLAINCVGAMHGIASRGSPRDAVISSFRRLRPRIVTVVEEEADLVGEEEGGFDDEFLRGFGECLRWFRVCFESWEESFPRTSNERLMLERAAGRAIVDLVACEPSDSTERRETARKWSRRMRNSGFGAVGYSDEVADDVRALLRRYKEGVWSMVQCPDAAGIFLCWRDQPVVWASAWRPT
T1 sequence (looked up) 2: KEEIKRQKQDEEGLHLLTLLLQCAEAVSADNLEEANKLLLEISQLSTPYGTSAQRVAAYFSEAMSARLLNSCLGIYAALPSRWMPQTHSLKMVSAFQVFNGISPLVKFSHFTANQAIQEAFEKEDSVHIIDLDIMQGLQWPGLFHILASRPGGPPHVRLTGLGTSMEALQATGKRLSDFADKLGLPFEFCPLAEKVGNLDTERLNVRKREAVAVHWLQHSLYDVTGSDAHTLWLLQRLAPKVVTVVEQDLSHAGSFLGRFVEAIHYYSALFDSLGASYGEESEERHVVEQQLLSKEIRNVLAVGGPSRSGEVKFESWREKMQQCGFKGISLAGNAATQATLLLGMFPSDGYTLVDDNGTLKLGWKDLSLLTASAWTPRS

B1: MGP/IDD3 ZF3-ZF4 (residues 143-221) (domain or fragment, Arabidopsis thaliana, UniProt Q9ZWA6 143-221, looked up)
chain: EKKWKCEKCAKRYAVQSDWKAHSKTCGTREYRCDCGTIFSRRDSFITHRAFCDALAEETARLNAASHLKSFAATAGSNL
B2: AtSCL3 (natural protein, Arabidopsis, UniProt Q9LPR8 1-482, looked up)
chain: MVAMFQEDNGTSSVASSPLQVFSTMSLNRPTLLASSSPFHCLKDLKPEERGLYLIHLLLTCANHVASGSLQNANAALEQLSHLASPDGDTMQRIAAYFTEALANRILKSWPGLYKALNATQTRTNNVSEEIHVRRLFFEMFPILKVSYLLTNRAILEAMEGEKMVHVIDLDASEPAQWLALLQAFNSRPEGPPHLRITGVHHQKEVLEQMAHRLIEEAEKLDIPFQFNPVVSRLDCLNVEQLRVKTGEALAVSSVLQLHTFLASDDDLMRKNCALRFQNNPSGVDLQRVLMMSHGSAAEARENDMSNNNGYSPSGDSASSLPLPSSGRTDSFLNAIWGLSPKVMVVTEQDSDHNGSTLMERLLESLYTYAALFDCLETKVPRTSQDRIKVEKMLFGEEIKNIISCEGFERRERHEKLEKWSQRIDLAGFGNVPLSYYAMLQARRLLQGCGFDGYRIKEESGCAVICWQDRPLYSVSAWRCRK
B3: JKD/IDD10 ZF3-ZF4 (residues 155-224) (domain or fragment, Arabidopsis thaliana, UniProt Q700D2 155-224, looked up)
chain: GEKKWKCEKCSKKYAVQSDWKAHAKTCGTREYKCDCGTLFSRKDSFITHRAFCDALTEEGARMSSLSNNN

Tests used:
[1] = biological target: T1, SHR-SCR complex (SHR 59-531 with SCR …); test: ITC
AUC = biological target: the molecule itself; test: AUC

| Binder | Kd [1] [nM] | dH [1] [kcal/mol] | stoichiometry N [1] | stoichiometry N (AUC) |
| --- | --- | --- | --- | --- |
| B1 | 35.5 ± 11.2 | 2.59 ± 0.02 | 0.81 ± 0.003 | – |
| B2 | – | – | – | 2 |
| B3 | 124 ± 81.7 | -1.29 ± 0.03 | 0.6 ± 0.01 | – |
